In patent publication US20130184211A1 (NEW YORK UNIVERSITY, published 2013):

T1: 1:1 binary complex of the ectodomains of FGFR1c and Klotho (human; murine, UniProt O35082 35-982)
T1 construct: range 35-982; also called FGFR1c-Klotho complex; binary FGFR1c-Klotho complex; not shown: C-terminal FLAG tag
T1 sequence 1: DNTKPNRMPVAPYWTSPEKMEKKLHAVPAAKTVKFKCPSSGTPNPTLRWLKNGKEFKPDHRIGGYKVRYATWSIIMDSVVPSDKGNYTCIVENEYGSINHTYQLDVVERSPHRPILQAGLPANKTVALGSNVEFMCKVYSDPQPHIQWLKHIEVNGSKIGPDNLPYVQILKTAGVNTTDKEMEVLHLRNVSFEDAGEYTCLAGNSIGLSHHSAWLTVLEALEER
T1 sequence 2: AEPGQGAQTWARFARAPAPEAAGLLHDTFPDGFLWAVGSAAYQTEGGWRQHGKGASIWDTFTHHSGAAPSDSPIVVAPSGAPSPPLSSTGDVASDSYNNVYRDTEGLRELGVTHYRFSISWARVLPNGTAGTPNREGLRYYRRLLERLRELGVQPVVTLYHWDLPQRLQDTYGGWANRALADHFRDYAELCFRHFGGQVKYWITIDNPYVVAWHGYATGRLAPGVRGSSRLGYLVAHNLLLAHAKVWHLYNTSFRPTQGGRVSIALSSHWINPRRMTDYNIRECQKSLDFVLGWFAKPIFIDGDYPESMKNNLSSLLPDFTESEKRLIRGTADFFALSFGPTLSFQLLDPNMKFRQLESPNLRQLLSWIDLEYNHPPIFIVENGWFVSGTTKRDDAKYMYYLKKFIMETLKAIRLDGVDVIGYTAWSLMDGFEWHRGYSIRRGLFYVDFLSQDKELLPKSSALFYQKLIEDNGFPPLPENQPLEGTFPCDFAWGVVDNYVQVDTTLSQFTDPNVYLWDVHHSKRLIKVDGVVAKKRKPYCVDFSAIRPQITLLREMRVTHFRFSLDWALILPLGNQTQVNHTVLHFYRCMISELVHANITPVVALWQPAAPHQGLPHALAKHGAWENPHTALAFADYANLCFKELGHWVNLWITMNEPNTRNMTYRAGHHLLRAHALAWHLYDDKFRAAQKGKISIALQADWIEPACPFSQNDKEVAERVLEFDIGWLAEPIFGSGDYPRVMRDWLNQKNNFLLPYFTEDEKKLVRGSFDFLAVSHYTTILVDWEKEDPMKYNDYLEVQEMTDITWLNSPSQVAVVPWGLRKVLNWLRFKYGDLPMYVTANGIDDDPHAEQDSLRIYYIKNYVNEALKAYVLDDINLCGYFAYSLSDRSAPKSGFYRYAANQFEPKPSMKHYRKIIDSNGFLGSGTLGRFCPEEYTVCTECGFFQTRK


Tests used:
[1] = biological target: T1, 1:1 binary complex of the ectodomains …; assay: SPR competition dose-response: FGF23^180-205 mixed with a fixed concentration of FGFR1c-Klotho, immobilized FGF23^28-251 as competitor; averaged data of two to three experiments
Text: To analyze FGF23 binding to the binary FGFR1c-Klotho complex, FGF23²⁸⁻²⁵¹ was coupled to a chip, and increasing concentrations of 1:1 complex of the ectodomains of FGFR1c and Klotho in HBS-EP buffer were passed over the chip. To measure binding of the C-terminal tail of FGF23 to the binary FGFR1c-Klotho complex, FGF23¹⁸⁰⁻²⁵¹ was immobilized on a chip, and increasing concentrations of 1:1 complex of the ectodomains of FGFR1c and Klotho in HBS-EP buffer were passed over the chip. To examine whether the C-terminal tail of FGF23 can compete with full-length FGF23 for binding to the binary FGFR1c-Klotho complex, FGF23²⁸⁻²⁵¹ was immobilized on a chip. Increasing concentrations of FGF23¹⁸⁰⁻²⁵¹ were mixed with a fixed concentration of 1:1 complex of the ectodomains of FGFR1c and Klotho in HBS-EP buffer, and the mixtures were passed over the chip. As a control, competition of FGF23 in solution with immobilized FGF23 for binding to the binary FGFR1c-Klotho complex was studied. Increasing concentrations of FGF23²⁸⁻²⁵¹ were mixed with a fixed concentration of 1:1 complex of the ectodomains of FGFR1c and Klotho in HBS-EP buffer, and the mixtures were passed over the FGF23 chip. […] As a control, competition of FGF23 C-terminal tail peptide in solution with immobilized FGF23 C-terminal tail peptide for binding to the binary FGFR1c-Klotho complex was analyzed. […]

[2] = biological target: T2, complex of V5-tagged FGFR1c and FLAG-tagged membrane-spanning murine Klotho isolated from transfected … (murine, UniProt O35082 35-1014); assay: co-immunoprecipitation competition; competitor FGF23^28-251 (1 nM)
T2 construct: Isolated from cell lysate on anti-V5 agarose beads; also called FGFR1c-Klotho complex (co-immunoprecipitated); binary FGFR-Klotho complex; not shown: FGFR1c, V5-tagged, expressed from a vector in HEK293-Klotho cells
Text: (§1) Co-immunoprecipitation may also be used to determine that an agent specifically binds the binary FGFR-Klotho complex. One aspect of the present invention utilizes co-immunoprecipitation studies. Subconfluent cultures of a HEK293 cell line ectopically expressing the FLAG-tagged membrane-spanning form of murine Klotho were transfected with expression vectors for V5-tagged FGFR1c, FGFR3c, or FGFR4. Two days later, the cells were lysed, and FGFR-Klotho complexes were isolated from cell lysate using anti-V5 agarose beads. The beads were then incubated with either FGF23¹⁸⁰⁻²⁵¹ or FGF23²⁸⁻²⁵¹ alone, or with mixtures of FGF23²⁸⁻²⁵¹ with either increasing FGF23¹⁸⁰⁻²⁵¹ or increasing FGF23¹⁸⁰⁻²⁰⁵. Bead-bound proteins were resolved on SDS-polyacrylamide gels, transferred to nitrocellulose membranes, and labeled using antibodies to Klotho, FGF23, and V5 epitope tag.

[3] = biological target: T3, complex of V5-tagged FGFR4 and FLAG-tagged membrane-spanning murine Klotho isolated from transfected … (murine, UniProt O35082 35-1014); assay: as above
T3 construct: Isolated from cell lysate on anti-V5 agarose beads; also called FGFR4-Klotho complex; binary FGFR-Klotho complex; not shown: FGFR4, V5-tagged, expressed from a vector in HEK293-Klotho cells
Text: as §1

| Binder | IC50 (read off the curve) [1] [nM] | molar excess over FGF23^28-251 that completely blocked its binding [2] [fold molar excess] | molar excess over FGF23^28-251 that completely blocked its binding [3] [fold molar excess] |
| --- | --- | --- | --- |
| SAEDDSERDPLNVLKPRARMTPAPAS (Made by solid phase synthesis (GenScript)) [FGF23 C-terminal region peptide (S180 to S205), FGF23^180-205] | ~100 |  |  |
| N-terminally hexahistidine-tagged 72-amino acid C-terminal tail of human FGF23 (S180 to I251), FGF23^180-251 (Expressed in E. coli; also called FGF23 C-terminal tail peptide; C-terminal tail of FGF23; not shown: N-terminal hexahistidine tag (six His)) peptide: SAEDDSERDPLNVLKPRARMTPAPASCSQELPSAEDNSPMASDPLGVVRGGRVNTHAGGTGPEGCRPFAKFI |  | 76 | 76 |
